Stoichiometry N data for 1 substance are collected here from publication PMC2289705.

This experiment addresses vimentin 2.tag (epitope-tagged Xenopus laevis vimentin 2, 57 kD) (X. laevis). Put plainly: fractionation of oocytes into soluble and insoluble fractions.

By stoichiometry N is commonly meant the number of molecules, sites or subunits per partner or assembly. The substance “vimentin 2.tag (epitope-tagged Xenopus laevis vimentin 2, 57 kD) (natural protein)” yielded a stoichiometry N of 4.
